In the supplement of paper PMC10567573:

B1: ALDH8A1 (parent)
chain: RVAKKLQSGLVWTNCWLIRELNLP
B2: TMEM120A (parent)
chain: YQSFVQFLQYYYQSGCLYRLRALG

Variants of: B1
Test: protein stability index of a GFP-peptide fusion (GPS, HEK-293T) (PSI 1-6); higher = more stable
Conditions: c terminus: a fixed tail appended
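Also: lentivirally expressed fusions sorted by FACS into six bins by GFP to DsRed ratio, PSI derived from sequencing read proportions per bin multiplied by bin number.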

Protein stability index of substitutions, site by site:
A3: R 2.03, P 3.51, Y 1.16, M 3.44, W 2.5, I 3.48
G9: M 3.32, T 3.22, E 1.72, W 2.58
L21: W 2.9, G 5.81, D 3.05, H 2.79
L23: Q 3.48, E 2.88, M 3.59
V2: D 1.92, H 4.07, N 2.49, W 2.54, E 1.9, S 3.15, K 1.36, P 2.08, I 3.68, T 2.33
P24: W 3.34, S 2.25, A 2.76, Y 3.16, T 2.19
L10: D 1.51, R 2.47, T 2.97
I18: Y 1.89, H 1.89, P 1.3, D 1.73, K 4.38, E 2.2, T 2.57
L6: K 2.56, P 1.95, C 3.03, M 3.2, E 2.26, A 2.04, Q 2.86, T 2.31
K5: T 2.88, L 3.02, H 3.18, M 3.19, I 2.13, V 4.01, C 3.67, Y 3.1
E20: Y 3.02, P 2.22, M 1.33, T 3.57
R19: L 2.18, F 1.5, S 2.44, N 3.94, P 1.53
Q7: K 2.17, M 1.85, Y 2.48, N 2.29, W 2.85, L 4.65
W16: P 1.22, G 1.32, E 1.43, T 2.09, H 1.92, A 2.71, Q 1.03, D 1.63, F 2.47, N 2.1, K 2.08, L 1.85
L17: D 3.58, E 2.77, K 1.34, Q 1.32, I 1.08, N 1.33, R 3.13, P 1.68
K4: N 4.07, H 2.45, F 2.22, R 2.29, M 2.82, C 1.05, W 3.14
V11: D 2.32, E 2.29, W 4.66, P 2.11, L 2.91
S8: H 1.63, I 1.71, T 1.94, A 3.67, E 2.9, V 3.65
N22: I 3.01, K 4.74, P 3.03, G 2.7, T 2.17, Y 3.15, D 5.55
N14: K 2.73, Y 1.59, P 2.06, L 2.19, M 2.04, D 2.19, I 1.2, V 1.22, F 2.33
C15: P 2.17, H 3.92, E 1.8, I 2.44, V 2.65, A 2.39, R 3.14
T13: E 1.95, K 2.59, H 1.57
W12: V 1.67, H 2.37, E 2.75, T 1.61, K 2.27, S 2.38, P 3.58, Q 1.18
R1: T 3.94, D 2.04, F 3.15, P 2.46, C 1.74, L 5, K 3.98

Variants of: B2
Test: as above
Conditions: c terminus: a fixed tail appended

Protein stability index: each site, then its substitutions
Y1: K 2.19, E 1.49, M 2.68, S 1.86, I 2.24, F 3.06, Q 2.83
Q2: I 2.65, E 3.02, F 3.7, R 1.21, L 3.88, A 2.37, S 2.29, M 3.47
